Data reported in patent US20260242478A1 (published 2026).
Where no end group is shown, it is not given here.

How the values were obtained:
[1] = molecular target: T1, Anti-CD28 Fab (SEQ ID NOs: 696, 697); test: phage binding ELISA on captured anti-CD28 Fab; competitor CD28 antigen
T1 construct: Biotinylated and captured on neutravidin coated plates in the phage ELISA
Method: (§1) Clonal phage were harvested as crude supematants and screened via standard ELISAs. […] Prior to the addition of clonal phage, wells were incubated with blocking buffer and CD28 antigen or blocking buffer alone. Without washing or aspirating, clonal phage supematants were then added to the wells and incubated for a short time. Wells were then washed followed by detection of bound phage using a horse radish conjugated anti-M13 antibody.

[2] = molecular target: T1, Anti-CD28 Fab (SEQ ID NOs: 696, 697); test: phage binding ELISA; biotinylated anti-CD28 Fab on neutravidin plate, anti-M13 HRP detection
Method: as §1

[3] = molecular target: T2, Anti-PSMA Fab (SEQ ID NOs: 19, 20); test: phage ELISA; clonal phage supernatant on biotinylated PSMA Fab captured on neutravidin plates, anti-M13 HRP detection
T2 construct: also called 006 PSMA Fab
Method: (§2) Clonal phage were harvested as crude supernatants and screened via standard ELISAs. […] Prior to the addition of clonal phage. wells were incubated with blocking buffer and PSMA antigen or blocking buffer alone. Without washing or aspirating, clonal phage supernatants were then added to the wells and incubated for a short time. Wells were then washed followed by detection of bound phage using a horse radish conjugated anti-M13 antibody.

[4] = molecular target: T2, Anti-PSMA Fab (SEQ ID NOs: 19, 20); test: phage ELISA; clonal phage on captured PSMA Fab pre-incubated with PSMA antigen as competitor, anti-M13 HRP detection
Method: as §2

T1 sequence (VH, as listed by the source, chain 1 of 2): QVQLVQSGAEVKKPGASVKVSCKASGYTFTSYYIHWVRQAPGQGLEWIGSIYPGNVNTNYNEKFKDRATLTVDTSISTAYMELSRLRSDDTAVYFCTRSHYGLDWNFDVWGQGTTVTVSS
T1 sequence (VL, as listed by the source, chain 2 of 2): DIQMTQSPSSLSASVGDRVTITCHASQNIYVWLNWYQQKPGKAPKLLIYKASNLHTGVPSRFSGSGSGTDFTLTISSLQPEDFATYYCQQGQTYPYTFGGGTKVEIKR

| Binder | Anti-CD28 Fab signal in the presence of CD28 [1] | Anti-CD28 Fab (SEQ ID NOs: 696, 697) signal [2] | Phage binding ELISA, Anti-PSMA Fab (SEQ ID NOs: 19, 20) signal [3] | Phage binding ELISA, Anti-PSMA Fab signal in the presence of PSMA [4] |
| --- | --- | --- | --- | --- |
| DCWWMFESYPGRCI (cysteine pairing not given here; also: displayed as fusion to phage pIII, linker and pIII sequence not given here, Clonal phage supernatant; also called Peptide-86; not shown: fused to the pIII filament protein of the bacteriophage) [Phage-465] | 0.07 | 1.65 | – | – |
| YCAGHAWQYINKCL (cysteine pairing not given here; also: displayed as fusion to phage pIII, linker and pIII sequence not given here, Clonal phage supernatant; also called Peptide-87; not shown: fused to the pIII filament protein of the bacteriophage) [Phage-466] | 0.07 | 0.64 | – | – |
| DCPWLSGFSRPLLC (Clonal phage supernatant; also called Peptide-93; not shown: fused to the pIII filament protein of the bacteriophage) [Phage-472] | 0.07 | 1.27 | – | – |
| HCLWHESSGRVLCF [Phage-1742] | – | – | 2.15 | 0.0678 |
| MCQWDELNYWMDCD [Phage-1752] | – | – | 1.65 | 0.0565 |
| ILPCHWYTSDCPQH (also called Peptide-200) [Phage-1750] | – | – | 1.63 | 0.117 |
| WCWVQDDRRHVVCG [Phage-1751] | – | – | 1.19 | 0.0549 |
| FWECYSSFCRFVEG [Phage-1746] | – | – | 1.46 | 0.139 |
| YCWVDADMWLIFRC [Phage-1749] | – | – | 1.01 | 0.275 |
| PLCGTEEVWWECRL [Phage-1747] | – | – | 1.78 | 0.0826 |
| WCWDYREWVPMTCP (cysteine pairing not given here; also: displayed as fusion to phage pIII, linker and pIII sequence not given here, Clonal phage supernatant; also called Peptide-82; not shown: fused to the pIII filament protein of the bacteriophage) [Phage-461] | 0.08 | 2.3 | – | – |
| WCWYYREWVPMTCP (cysteine pairing not given here; also: displayed as fusion to phage pIII, linker and pIII sequence not given here, Clonal phage supernatant; also called Peptide-88; not shown: fused to the pIII filament protein of the bacteriophage) [Phage-467] | 0.07 | 1.85 | – | – |
| LTRCVPDWMCYRAV [Phage-1748] | – | – | 1.17 | 0.0708 |
| YWYCSPSIVRCVLV (Clonal phage supernatant; also called Peptide-89; not shown: fused to the pIII filament protein of the bacteriophage) [Phage-468] | 0.09 | 1.51 | – | – |
| QCVWDLTNYWMNCD [Phage-1756] | – | – | 1.3 | 0.057 |
| SKLLCVPPWMCYHV [Phage-1744] | – | – | 0.806 | 0.0794 |
| WCWDYKLWVPMTCP (cysteine pairing not given here; also: displayed as fusion to phage pIII, linker and pIII sequence not given here, Clonal phage supernatant; also called Peptide-85; not shown: fused to the pIII filament protein of the bacteriophage) [Phage-464] | 0.11 | 2.51 | – | – |
| QCVWDNFNYWMDCD [Phage-1753] | – | – | 0.772 | 0.0667 |
| MEYCSFHRFTCVLW [Phage-1743] | – | – | 1.93 | 0.116 |
| YCAGHSPINIGKCL (cysteine pairing not given here; also: displayed as fusion to phage pIII, linker and pIII sequence not given here, Clonal phage supernatant; also called Peptide-84; not shown: fused to the pIII filament protein of the bacteriophage) [Phage-463] | 0.06 | 1.49 | – | – |
| WCWDYKLWVPTQCP (cysteine pairing not given here; also: displayed as fusion to phage pIII, linker and pIII sequence not given here, Clonal phage supernatant; also called Peptide-81; not shown: fused to the pIII filament protein of the bacteriophage) [Phage-460] | 0.14 | 2.27 | – | – |
| QCVWDRGTWWMACD [Phage-1759] | – | – | 0.414 | 0.052 |
| MCFVTGWGVPDDCN [Phage-1758] | – | – | 0.638 | 0.0694 |
| MCQWDKINYWMDCD [Phage-1755] | – | – | 1.81 | 0.049 |
| QCTWNEKTWWMECE [Phage-1754] | – | – | 1.35 | 0.0568 |
| QLPCHYWGEWCPQA [Phage-1745] | – | – | 1.39 | 0.0537 |
| ECHWSMWAVGHACF (cysteine pairing not given here; also: displayed as fusion to phage pIII, linker and pIII sequence not given here, Clonal phage supernatant; also called Peptide-83; not shown: fused to the pIII filament protein of the bacteriophage) [Phage-462] | 0.07 | 1.77 | – | – |
| WICDKSGSIMLCRA (Clonal phage supernatant; also called Peptide-91; not shown: fused to the pIII filament protein of the bacteriophage) [Phage-470] | 0.06 | 0.91 | – | – |
| DCHWNKATWWMDCE [Phage-1757] | – | – | 1.18 | 0.0828 |
